Data published in patent publication US20120328616A1 (Amgen, published 2012).
Positions count from the first letter of the chain named. One block for each binder: values may come before it.

Columns and labels:
[1] = target: T1, human FGFR1c/human β-Klotho complex (FGF21 receptor) (human, UniProt P11362 22-822); experiment: flow cytometry, transfected HEK293T; mock-transfected cells 648
T1 construct: Both full-length proteins co-expressed on cells (HEK293T, CHO, L6); also called HuFGFR1c/Hu β-Klotho; huFGF21R

[2] = target: T2, cynomologous monkey FGFR1c/cynomologous monkey β-Klotho (co-transfected) (cynomologous monkey); experiment: as above
T2 construct: whole, on cells; also called Cyno FGFR1c/Cyno β-Klotho

human FGFR1c [3] = target: T3, human FGFR1c (human, UniProt P11362 22-822); experiment: as above
T3 construct: Full length (GenBank NP-075598), expressed on transfected 293T cells; also called huFGFR1c; FGFR1c alone

[4] = target: T4, huBeta_Klotho(1-301, 509-1044) (muBetaKLOTHO S302-F506) (human; murine, UniProt Q86Z14 1-1044); experiment: flow cytometry, transfected HEK-293T
T4 construct: also called Chimera 6; Construct 6

[5] = target: T5, huBeta_Klotho (1-81, 303-1044) (muBetaKLOTHO 82P-302S) (human; murine, UniProt Q86Z14 1-1044); experiment: flow cytometry, transfected HEK-293T
T5 construct: also called Chimera 4; Construct 4

[6] = target: T6, huBeta_Klotho (1-193, 419-1044) (muBetaKLOTHO Y194-416G) (human; murine, UniProt Q86Z14 1-1044); experiment: flow cytometry, transfected HEK-293T
T6 construct: also called Chimera 5; Construct 5

[7] = target: T7, huBeta_Klotho (1-301, 509-743, 967-1044) (muBeta KLOTHO 302-506, 742-964) (human; murine, UniProt Q86Z14 1-1044); experiment: flow cytometry, transfected HEK-293T
T7 construct: also called Chimera 14; Construct 14
T7 chain: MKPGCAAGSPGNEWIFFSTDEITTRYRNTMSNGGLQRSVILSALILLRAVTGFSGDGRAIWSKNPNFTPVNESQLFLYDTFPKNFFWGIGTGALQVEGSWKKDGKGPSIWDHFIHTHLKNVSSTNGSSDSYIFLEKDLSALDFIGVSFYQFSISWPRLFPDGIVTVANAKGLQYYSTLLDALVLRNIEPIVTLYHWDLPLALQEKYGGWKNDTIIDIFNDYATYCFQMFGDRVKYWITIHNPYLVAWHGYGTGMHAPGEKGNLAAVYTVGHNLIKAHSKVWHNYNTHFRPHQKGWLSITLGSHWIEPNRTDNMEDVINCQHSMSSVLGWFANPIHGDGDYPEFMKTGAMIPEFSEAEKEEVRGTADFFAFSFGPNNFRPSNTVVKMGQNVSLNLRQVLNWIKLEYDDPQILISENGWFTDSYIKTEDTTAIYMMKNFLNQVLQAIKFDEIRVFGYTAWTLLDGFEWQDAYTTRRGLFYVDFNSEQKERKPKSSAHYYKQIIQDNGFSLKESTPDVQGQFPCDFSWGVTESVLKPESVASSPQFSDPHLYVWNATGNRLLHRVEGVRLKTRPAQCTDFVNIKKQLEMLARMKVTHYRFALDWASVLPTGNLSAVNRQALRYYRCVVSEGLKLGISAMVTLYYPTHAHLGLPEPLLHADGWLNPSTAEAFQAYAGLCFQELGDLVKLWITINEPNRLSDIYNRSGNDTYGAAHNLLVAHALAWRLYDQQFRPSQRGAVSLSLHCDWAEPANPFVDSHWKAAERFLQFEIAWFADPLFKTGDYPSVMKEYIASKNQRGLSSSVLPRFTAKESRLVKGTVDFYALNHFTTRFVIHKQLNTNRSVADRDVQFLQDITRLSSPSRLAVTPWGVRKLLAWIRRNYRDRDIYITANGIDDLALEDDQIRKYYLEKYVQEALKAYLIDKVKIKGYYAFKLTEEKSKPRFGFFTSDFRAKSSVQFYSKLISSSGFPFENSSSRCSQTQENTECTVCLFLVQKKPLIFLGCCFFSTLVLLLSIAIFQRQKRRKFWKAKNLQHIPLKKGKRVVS

[8] = target: T8, huBeta_Klotho (194-1044) (muBetaKLOTHO 1-L193) (murine; human, UniProt Q86Z14 1-1044); experiment: flow cytometry, transfected HEK-293T
T8 construct: also called Chimera 3; Construct 3

[9] = target: T9, huBeta_Klotho (1-507) (muBetaKLOTHO 506F-1045S) (human; murine, UniProt Q99N32 1-1043); experiment: flow cytometry, transfected HEK-293T
T9 construct: also called Chimera 2; Construct 2

[10] = target: T1, human FGFR1c/human β-Klotho complex …; experiment: flow cytometry, transfected HEK293T; mock-transfected cells 688
[11] = target: T2, cynomologous monkey FGFR1c/cynomologous …; experiment: as above
human FGFR1c [12] = target: T3, human FGFR1c; experiment: as above
[13] = target: T1, human FGFR1c/human β-Klotho complex …; experiment: flow cytometry, transfected HEK293T; mock-transfected cells 723
[14] = target: T2, cynomologous monkey FGFR1c/cynomologous …; experiment: as above
human FGFR1c [15] = target: T3, human FGFR1c; experiment: as above
[16] = target: T1, human FGFR1c/human β-Klotho complex …; experiment: flow cytometry, transfected HEK293T; mock-transfected cells 695
[17] = target: T2, cynomologous monkey FGFR1c/cynomologous …; experiment: as above
human FGFR1c [18] = target: T3, human FGFR1c; experiment: as above

B1: 49G3.3 (antibody, V domains shown)
VH: QVTLKESGPVLVKPTETLTLTCTVSGFSLSNPRMGVSWIRQPPGKALEWLTHIFSNDEKSYSTSLKSRLTISKDTSKSQVVLSMTNMDPVDTATYYCVRVDTLNYHYYGMDVWGQGTTVTVSS
VL: DIQMTQSPSSLSASIGDRVTITCQASQGISNYLNWYQQKPGKAPKLLIYDASNLETGVPSRFSGSGSGTDFTFTISSLQPEDIATYYCHQYDDLPLTFGGGTKVEIRR
GeoMean [1]: 17900
GeoMean [2]: 25900
GeoMean (human FGFR1c [3]): 706
binding result [4]: no binding
binding result [5]: binds
binding result [6]: no binding
binding result [7]: no binding
binding result [8]: no binding
binding result [9]: binds

B4: 67C10.1 (antibody, V domains shown)
VH: EVQLVQSGAEVKKPGESLKISCQGSGYSFSSYWIGWVRQMPGKGLEWMGIIYPGDSDTRYSPSFQGQVTISADKSINTAYLQWSSLKASDTAIYYCARRASRGYRYGLAFAIWGQGTMVTVSS
VL: DFVMTQTPLSLPVTPGEPASISCRSSQSLLNSDDGNTYLDWYLQKPGQSPQLLIYTLSYRASGVPDRFSGSGSGTDFTLKISRVEAEDVGVYYCMQRIEFPITFGQGTRLEIKR
GeoMean [10]: 18900
GeoMean [11]: 4060
GeoMean (human FGFR1c [12]): 780
binding result [4]: binds
binding result [5]: binds
binding result [6]: binds
binding result [7]: no binding
binding result [8]: binds
binding result [9]: no binding

B5: 51E5.1 (antibody, V domains shown)
VH: QVQLQQWGAGLLKPSETLSLTCAVYGGSFSGYYWSWIRQPPGKGLEWIGELDHSGSINYNPSLKSRVTISVDTSKNQFSLKLTSVTAADTAVYYCARVLGSTLDYWGQGTLVTVSS
VL: DIQMTQSPSSLSASVGDRVTITCRASQDIRNDLGWYQQKPGKAPNRLIYAASSLQFGVPSRFSGSGSGTEFTLTISSLQPEDFATYYCLQHSSYPLTFGGGTRVEIKR
GeoMean [13]: 21000
GeoMean [14]: 36500
GeoMean (human FGFR1c [15]): 747
binding result [4]: binds
binding result [5]: binds
binding result [6]: binds
binding result [7]: no binding
binding result [8]: binds
binding result [9]: no binding

Now from value to binder:

binding result [4]: binds
binding result [5]: binds
binding result [6]: binds
binding result [7]: no binding
binding result [8]: binds
binding result [9]: no binding
B2: 65C3.1 (antibody, V domains shown)
VH: QVQLQESGPGLVKPSETLSLTCTVSGGSISSYYWSWIRQPPGKGLEWIGYIYYTGSTNYNPSLKSRVTISVDTSKNQFSLKLSSVTAADTAVYYCAREYYYGSGSYYPWGQGTLVTVSS
VL: EMVMTQSPATLSVSPGERATLSCRASQSVSSQLAWYQEKPGRAPRLLIYGASNRAIDIPARLSGSGSGTEFTLTISSLQSEDFAVYYCQQYNNWPWTFGQGTKVEFKR

binding result [4]: binds
binding result [5]: binds
binding result [6]: binds
binding result [7]: no binding
binding result [8]: binds
binding result [9]: no binding
B3: 67F5.1 (antibody, V domains shown)
VH: B2 VH with Q5K, T54S, S56N
VL: EIVMTQSPATLSVSPGERVTLSCRASQSVSSNLAWYQQKPGQAPRLLIHGSSNRAIGIPARFSGSGSGTEFTLTISSLQSADFAVYNCQQYEIWPWTFGQGTKVEIKR

binding result [4]: binds
binding result [5]: binds
binding result [6]: binds
binding result [7]: no binding
binding result [8]: binds
binding result [9]: no binding
GeoMean [16]: 16700
GeoMean [17]: 21600
GeoMean (human FGFR1c [18]): 780
B6: 66G2.1 (antibody, V domains shown)
VH: QVQLVESGGGVVQPGRSLRLSCAASGFTFSSYGMHWVRQAPGKGLEWVAGISYDGSNKNYADSVKGRITISRDNPKNTLYLQMNSLRAEDTAVYYCATTVTKEDYYYYGMDVWGQGTTVTVSS
VL: B5 VL with D28G, N45K, S53N, F56S, E70K, S76N, H91L, S92N, S93G, R103K
